# Patent US20250019450A1 (DIAGONAL THERAPEUTICS, published 2025)
# Numbering of substitutions follows the chain as printed.
# T1: cyno IL-12RB2 with C-terminal HA tag, transiently expressed on HEK-293T cells (cyno, UniProt A0A2K5VNI7 24-860)
# T1 construct: whole, on cells; also called cyno IL-12Rβ2
# T1 sequence: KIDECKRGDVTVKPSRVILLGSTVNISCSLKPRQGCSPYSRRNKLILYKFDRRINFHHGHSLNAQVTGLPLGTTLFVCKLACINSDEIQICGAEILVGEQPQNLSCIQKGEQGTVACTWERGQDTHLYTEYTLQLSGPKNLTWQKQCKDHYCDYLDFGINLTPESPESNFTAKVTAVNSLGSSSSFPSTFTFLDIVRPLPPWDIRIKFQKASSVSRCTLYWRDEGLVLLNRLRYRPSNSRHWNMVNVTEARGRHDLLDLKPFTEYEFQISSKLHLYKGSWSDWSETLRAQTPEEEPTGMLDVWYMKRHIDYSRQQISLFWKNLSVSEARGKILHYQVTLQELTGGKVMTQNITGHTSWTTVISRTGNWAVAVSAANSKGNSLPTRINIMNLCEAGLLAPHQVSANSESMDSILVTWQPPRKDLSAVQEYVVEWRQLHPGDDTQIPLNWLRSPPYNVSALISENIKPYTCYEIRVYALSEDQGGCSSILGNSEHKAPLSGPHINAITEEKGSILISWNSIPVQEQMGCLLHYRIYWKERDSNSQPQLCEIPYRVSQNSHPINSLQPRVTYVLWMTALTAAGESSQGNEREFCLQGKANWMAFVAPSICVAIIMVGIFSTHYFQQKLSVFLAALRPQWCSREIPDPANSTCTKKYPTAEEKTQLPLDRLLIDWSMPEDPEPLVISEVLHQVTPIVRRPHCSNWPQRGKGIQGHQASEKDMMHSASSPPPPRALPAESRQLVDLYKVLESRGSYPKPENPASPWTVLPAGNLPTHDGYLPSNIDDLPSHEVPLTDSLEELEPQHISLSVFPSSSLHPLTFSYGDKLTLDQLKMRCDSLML
# T2: human IL-12RB2 with C-terminal HA tag, transiently expressed on HEK-293T cells (human, UniProt Q99665 24-862)
# T2 construct: whole, on cells; also called human IL-12Rβ2
# T2 sequence (looked up): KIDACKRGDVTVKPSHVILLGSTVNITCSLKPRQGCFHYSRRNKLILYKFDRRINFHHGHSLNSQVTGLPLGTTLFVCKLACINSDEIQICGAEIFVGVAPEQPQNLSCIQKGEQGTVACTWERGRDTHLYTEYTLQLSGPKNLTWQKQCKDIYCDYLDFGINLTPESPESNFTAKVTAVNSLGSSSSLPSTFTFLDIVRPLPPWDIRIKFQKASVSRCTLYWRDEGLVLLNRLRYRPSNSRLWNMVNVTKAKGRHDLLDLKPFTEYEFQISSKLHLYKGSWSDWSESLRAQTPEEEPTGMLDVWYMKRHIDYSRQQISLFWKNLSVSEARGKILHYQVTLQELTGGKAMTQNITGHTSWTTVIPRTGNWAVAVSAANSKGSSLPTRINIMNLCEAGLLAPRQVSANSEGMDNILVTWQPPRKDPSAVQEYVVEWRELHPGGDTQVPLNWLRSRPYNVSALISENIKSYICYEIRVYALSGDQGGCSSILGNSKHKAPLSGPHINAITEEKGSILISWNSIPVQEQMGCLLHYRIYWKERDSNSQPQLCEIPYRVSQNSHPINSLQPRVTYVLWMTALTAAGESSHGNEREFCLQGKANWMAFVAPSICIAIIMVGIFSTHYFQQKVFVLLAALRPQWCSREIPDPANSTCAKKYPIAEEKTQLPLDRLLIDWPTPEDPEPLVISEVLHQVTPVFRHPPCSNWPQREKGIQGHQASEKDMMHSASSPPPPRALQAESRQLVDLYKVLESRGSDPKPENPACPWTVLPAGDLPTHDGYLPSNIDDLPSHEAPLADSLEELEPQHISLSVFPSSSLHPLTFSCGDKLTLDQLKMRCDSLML
# T3: human IL-12Rβ2-huFc-his (R&D system), biotinylated (human, UniProt Q99665 24-622, limits assumed, biotinylated)
# T3 construct: bought; captured on Neutravidin in the ELISA; also called Bio-huIL-12Rβ2-huFc-His
# T3 sequence (looked up): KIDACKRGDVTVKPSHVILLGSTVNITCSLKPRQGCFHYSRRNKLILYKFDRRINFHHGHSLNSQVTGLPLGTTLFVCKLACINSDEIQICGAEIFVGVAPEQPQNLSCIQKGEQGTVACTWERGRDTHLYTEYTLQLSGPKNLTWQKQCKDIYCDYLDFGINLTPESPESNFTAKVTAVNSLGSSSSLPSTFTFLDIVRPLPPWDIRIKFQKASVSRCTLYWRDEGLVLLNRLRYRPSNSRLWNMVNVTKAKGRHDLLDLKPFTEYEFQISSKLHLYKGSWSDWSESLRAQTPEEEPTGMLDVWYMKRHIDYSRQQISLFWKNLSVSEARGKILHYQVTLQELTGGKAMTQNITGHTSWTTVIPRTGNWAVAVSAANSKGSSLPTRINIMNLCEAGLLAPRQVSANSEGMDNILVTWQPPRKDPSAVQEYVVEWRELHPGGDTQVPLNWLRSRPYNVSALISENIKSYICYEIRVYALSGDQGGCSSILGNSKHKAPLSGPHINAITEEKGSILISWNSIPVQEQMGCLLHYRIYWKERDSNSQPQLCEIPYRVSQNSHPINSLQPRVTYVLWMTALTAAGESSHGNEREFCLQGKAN
# B1: 85801_01M07 (antibody, V domains shown)
# VH: QVQLVQSGAEVKKPGASVKVSCKASEYTFTDDYMHWVRQAPGQGLVWMGWINPNSGGTNYAQKFQGRVTMTRDTSISTAYMELSRLRSDDTAVYYCARGGLNWGWDWFDPWGQGTLVTVSS
# VL: EIVLTQSPGTLSLSPGERATLSCRASQNINNNYLAWYQRKPGQAPRLLIYGASSRATGIPDRFSGSGSGTDFTLTISRLEPEDFAMYYCQQYGSSLTFGGGTKVEIK
# notes: also called 85801_01M07A
# B2: 85801_01L02 (antibody, V domains shown)
# VH: QVQLVHSGPEVKKPGASVKVSCKASGYTFTDYYMHWVRQAPGQGLEWMGWINPDSGGTNYAQKFQGRVTMTRDTSISTAYMELSRLRSDDTAVYHCAREGATSNFDYWGQGTLVTVSS
# VL: DIQMTQSPSSLSASVGDRVTITCRASQGISNYLAWFQQKPGKAPTSLIYAASNLQGGVPSKFSGSGSGTDFTLTISSLQPEDFATYYCQQYRYYPFTFGPGTKVDIK
# notes: also called 85801_01L02A
# B3: 85801_04D10 (antibody, V domains shown)
# VH: EVQLLESGGGLVQPGGSLRLSCAASGFTFSSYAMSWVRQAPGKGLEWVAGISGSGGGIYYADSVKGRFTISRDNSKNTLYLQLNSLRADDTAVYYCARRLIGYWYFDLWGRGTLVPVSS
# VL: B2 VL with T45K, N53S, G56S, R92N, Y93S, F96P, P100G, D105E
# notes: also called 85801_04D10A
# B4: 85801_01D14 (antibody, V domains shown)
# VH: EVQLVESGGGLVKPGGSLRLSCAASGFTFSNAWMNWVRQAPGKGLEWVGRIKSKTDGGTTDYAAPVKGRFTVSRDDPKNTLYLQMNSLKTEDTAVYYCTTDPGWEFDYWGQGILVTVSS
# VL: DIQMTQSPSSLSASVGDRVTITCQASQDISNFLNWYQQKPGKAPNLLIYDASDLETGVPSRFSGSGSGTDFTFTISSLQPEDIATYYCQQYDNLPLTFGGGTKVEIK
# notes: also called 85801_01D14A
# B5: 85801_01002 (antibody, V domains shown)
# VH: QVQLVQSGAEVRKPGASVKVSCKASGYTFTDYYMHWVRQAPGQGLEWMGWINPDNGGANYAQRFLGRVTMTRDTSISTAYMELSRLRSDDTAVYYCAREGSGSPYAFDLWGLGTVVTVSS
# VL: DIQLTQSPSFLSASVGDRVTITCRASQGISSYLAWYQQKPGKAPKLLIYAASTLQSGVPSRFSGSGSGTEFTLTISSLQPEDFATYCCQQLNRYPFTFGQGTKLEIK
# notes: also called 85801_01O02A
# B6: 85801_02N03 (antibody, V domains shown)
# VH: QVHLVQSGAEVKKPGASVKVSCEASGYTFTDYYIHWLRQAPGQGLEWMGWINPNSGGTHYAQKFQGRVTMTRDTSISTAYMELSRLSSDDTAVYYCAREGGWNYFSGMDVWGQGTTVTVSS
# VL: B5 VL with K39Q, A43P, Q55H, C87Y, F96Y, F98C
# notes: also called 85801_02N03A
# B7: 85801_04D14 (antibody, V domains shown)
# VH: QVHLVQSGAEVKKPGASVKVSCKASGYTFIDYYMHWVRQAPGQGLEWMGWINPNSGGTHYSQKFQGRVTMTWDTSISTAYMELSRLTSDDTAVYYCAREGDYISSSAFDYWGQGTLVTVSS
# VL: B5 VL with L46V, Q79L, C87F, N92H, F96Y, T102A
# notes: also called 85801_04D14A
# B8: 85801_02K24 (antibody, V domains shown)
# VH: QVQLQESGPGLVKPSETLSLTCTVSGGSISSYDWSWIRQSAGKGLEWIGRIYTSGSTIYNPSLKSRVTMSVDTSKNEISLKLSSVTAADTAFYYCAKDRGNYPHDAFDIWGQGTMITVSS
# VL: B5 VL with Y32F, C87Y, R93G, Q100P, L104V, E105D
# notes: also called 85801_02K24A
# B9: 85801_03P23 (antibody, V domains shown)
# VH: EVQLVESGGGLVQPGGSLRLSCAASGFTFSSYWMSWVRQAPGKGLEWVANIKQDGSEKYYVDSVKGRFTISRDNAKNSLYLQMNSLRAEDTAVYYCARGSIAAPFDYWGQGTLVTVSS
# VL: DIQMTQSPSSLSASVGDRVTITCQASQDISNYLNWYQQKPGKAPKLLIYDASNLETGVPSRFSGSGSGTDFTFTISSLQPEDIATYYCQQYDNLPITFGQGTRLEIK
# notes: also called 85801_03P23A
# B10: 85801_02011 (antibody, V domains shown)
# VH: EVQLVESGGGLVQPGGSLRLSCAASGFTFSSYDMNWVRQAPGKGLEWISYINSRSSTIYYADSVKGRFTISRDNAKNSLYLQMNSLRDEDTALYYCAREIEDSMDVWGQGTTVTVSS
# VL: QSVLTQPPSVSAAPGQKVTISCSGSSSNIGNNYVSWYQQLPGTAPKLLIYDNNERPSGIPDRFSGSKSGTSATLGITGLQPGDEADYYCGTWDSSLSAGVFGGGTKLTVL
# notes: also called 85801_02O11A
# B11: 85801_04G23 (antibody, V domains shown)
# VH: QVQLVESGGGVVQPGRSLRLSCAASGFTFSSYGMHWVRQAPGKGLEWVAVIWNDGSNKYYADSVKGRFTISRDNSKNTLYLQMNSLRAEDTAVYYCARGELFFDYWGQGTLVTVSS
# VL: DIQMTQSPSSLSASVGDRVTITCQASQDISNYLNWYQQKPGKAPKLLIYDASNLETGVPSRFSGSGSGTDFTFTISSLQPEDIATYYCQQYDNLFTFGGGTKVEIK
# notes: also called 85801_04G23A
# B12: VHH64B2 (VHH)
# VHH: QVQLVESGGGLVQPGGSLRLSCAASGFTFSSKAMHWFRQAPGKGLEWVSSINSGGAITYYKDSVKGRFTVSRDNAKNILYLEMNSLKPEDTALYYCATDTDGRTRGQGTQVTVSS
# B13: VHH67B2 (VHH)
# VHH: QVQLVESGGGLVQPGGSLRLSCAASGFTFSNYAMSWIRQGPERGFEWVSRINSGGGTTSYADSVKGRFTISRDNAKNTLYLQMNSLKPEDTAVYYCAKHSHPDYSSNYYRPGQGTQVTVSS
# Biological target: T4, IL-12 receptor endogenously expressed on THP-1 cells (UniProt P42701 24-662; Q99665 24-862)
# T4 construct: whole, on cells
# Assay: FACS, hybridoma supernatant, THP-1
row,Binder,Fold over buffer [fold]
1,B1,7
2,B2,41
3,B3,42
4,B4,24
5,B5,38
6,B6,41
7,B7,17
8,B8,33
9,B9,39
10,B10,35
11,B11,46

# Biological target: T1, cyno IL-12RB2 with C-terminal HA tag, …
# Assay: FACS, periplasmic extract, HEK-293T
row,Binder,FOB [fold]
1,B12,2.69
2,B13,2.32

# Biological target: T2, human IL-12RB2 with C-terminal HA tag, …
# Assay: FACS, periplasmic extract, HEK-293T
row,Binder,FOB [fold]
1,B12,1.68
2,B13,1.73

# Biological target: T3, human IL-12Rβ2-huFc-his (R&D system), …
# Assay: ELISA, periplasmic extract
row,Binder,OD450 nm
1,B12,2.22
2,B13,0.581

# Biological target: T5, human IL-12RB1 overexpressed on 293T cells (Example 2) (human, UniProt P42701 24-662)
# T5 construct: whole, on cells
# Assay: FACS, hybridoma supernatant, 293T
row,Binder,Fold over parental 293T [fold]
1,B1,91
2,B2,117
3,B3,76
4,B4,116
5,B5,107
6,B6,221
7,B7,202
8,B8,130
9,B9,69
10,B10,114
11,B11,73

# Biological target: T6, cyno IL-12RB1 overexpressed on 293T cells (Example 2) (cyno, UniProt A0A2K5VWV1 24-662)
# T6 construct: whole, on cells
# Assay: FACS, hybridoma supernatant, 293T
row,Binder,Fold over parental 293T [fold]
1,B1,28
2,B2,32
3,B3,20
4,B4,52
5,B5,13
6,B6,85
7,B7,44
8,B8,53
9,B9,23
10,B10,56
11,B11,27
